Consider 23 molecules from paper PMC9352680, “A comprehensive thermodynamic model for RNA binding by the Saccharomyces cerevisiae Pumilio protein PUF4”.

The labels stand for the following.
T1: PUF4 RNA-binding domain (Saccharomyces cerevisiae, UniProt P25339 537-888)
T1 sequence: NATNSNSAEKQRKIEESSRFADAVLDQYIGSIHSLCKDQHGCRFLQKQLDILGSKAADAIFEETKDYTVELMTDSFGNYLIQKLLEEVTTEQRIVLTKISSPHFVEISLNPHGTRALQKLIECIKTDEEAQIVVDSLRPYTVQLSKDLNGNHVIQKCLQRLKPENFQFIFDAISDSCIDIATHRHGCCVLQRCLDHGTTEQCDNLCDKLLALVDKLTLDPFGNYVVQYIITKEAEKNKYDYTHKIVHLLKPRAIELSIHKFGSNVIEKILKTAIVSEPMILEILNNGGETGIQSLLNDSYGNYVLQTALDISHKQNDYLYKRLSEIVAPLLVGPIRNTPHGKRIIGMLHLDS

B1: Ic_S4_P5E.1_K5.1_C5.1_H5.1_A5.1_[T5C]_[T6A]_[A7C]_F5.1_[T8A]_[T9A]_T5.1 (ssRNA)
RNA: UUUGACAACUGAUCGUUCUUUCUUGUACACAAAUUCUUUCUCGAUCAGUUGUCUUU
B2: Ic_S4_P5E.1_K5.1_C5.1_H5.1_A5.1_[T5C]_[T6C]_[A7C]_F5.1_[T8G]_[T9C]_[A10G]_T5.1 (ssRNA)
RNA: UUUGACAACUGAUCGUUCUUUCUUGUACCCGCGUUCUUUCUCGAUCAGUUGUCUUU
B3: Ic_S4_P5E.1_K5.1_C5.1_H5.1_A5.1_[T5A]_[T6C]_[A7C]_F5.1_[T9C]_[A10G]_T5.1 (ssRNA)
RNA: UUUGACAACUGAUCGUUCUUUCUUGUAACCUCGUUCUUUCUCGAUCAGUUGUCUUU
B4: Ic_S4_P5E.1_K5.1_C5.1_H5.1_A5.1_[T6G]_[A7C]_F5.1_[T8C]_[T9C]_[A10T]_T5.1 (ssRNA)
RNA: UUUGACAACUGAUCGUUCUUUCUUGUAUGCCCUUUCUUUCUCGAUCAGUUGUCUUU
B5: Ic_S4_P5E.1_K5.1_C5.1_H5.1_A5.1_[T5A]_[A7T]_F5.1_[T9C]_[A10T]_T5.1 (ssRNA)
RNA: UUUGACAACUGAUCGUUCUUUCUUGUAAUUUCUUUCUUUCUCGAUCAGUUGUCUUU
B6: Ic_S4_P5E.1_K5.1_C5.1_H5.1_A5.1_[A7T]_F5.1_[T8G]_[T9C]_[A10C]_T5.1 (ssRNA)
RNA: UUUGACAACUGAUCGUUCUUUCUUGUAUUUGCCUUCUUUCUCGAUCAGUUGUCUUU
B7: Ic_S4_P5E.1_K5.1_C5.1_H5.1_A5.1_[T5A]_[T6A]_[A7T]_F5.1_[A10T]_T5.1 (ssRNA)
RNA: UUUGACAACUGAUCGUUCUUUCUUGUAAAUUUUUUCUUUCUCGAUCAGUUGUCUUU
B8: Ic_S4_P5E.1_K5.1_C5.1_H5.1_A5.1_[T5A]_[A7T]_F5.1_[T8G]_[T9C]_[A10C]_T5.1 (ssRNA)
RNA: UUUGACAACUGAUCGUUCUUUCUUGUAAUUGCCUUCUUUCUCGAUCAGUUGUCUUU
B9: Ic_S4_P5E.1_K5.1_C5.1_H5.1_A5.1_[T5C]_[A7G]_F5.1_[T8C]_[T9G]_[A10C]_T5.1 (ssRNA)
RNA: UUUGACAACUGAUCGUUCUUUCUUGUACUGCGCUUCUUUCUCGAUCAGUUGUCUUU
B10: Ic_S4_P5E.1_K5.1_C5.1_H5.1_A5.1_[T5A]_[T6A]_[A7C]_F5.1_[T9A]_T5.1 (ssRNA)
RNA: UUUGACAACUGAUCGUUCUUUCUUGUAAACUAAUUCUUUCUCGAUCAGUUGUCUUU
B11: Ic_S4_P5E.1_K5.1_C5.1_H5.1_A5.1_[A7T]_F5.1_[T8G]_[T9C]_[A10T]_T5.1 (ssRNA)
RNA: UUUGACAACUGAUCGUUCUUUCUUGUAUUUGCUUUCUUUCUCGAUCAGUUGUCUUU
B12: Ic_S4_P5E.1_K5.1_C5.1_H5.1_A5.1_[T5C]_[A7T]_F5.1_[T8C]_[T9G]_[A10T]_T5.1 (ssRNA)
RNA: UUUGACAACUGAUCGUUCUUUCUUGUACUUCGUUUCUUUCUCGAUCAGUUGUCUUU
B13: Ic_S4_P5E.1_K5.1_C5.1_H5.1_A5.1_[T5G]_[T6C]_[A7T]_F5.1_[T8A]_[A10T]_T5.1 (ssRNA)
RNA: UUUGACAACUGAUCGUUCUUUCUUGUAGCUAUUUUCUUUCUCGAUCAGUUGUCUUU
B14: Ic_S4_P5E.1_K5.1_C5.1_H5.1_A5.1_[A7T]_F5.1_[T8G]_[T9C]_[A10G]_T5.1 (ssRNA)
RNA: UUUGACAACUGAUCGUUCUUUCUUGUAUUUGCGUUCUUUCUCGAUCAGUUGUCUUU
B15: Ic_S4_P5E.1_K5.1_C5.1_H5.1_A5.1_[T5C]_[T6C]_[A7C]_F5.1_[T8G]_[T9C]_[A10C]_T5.1 (ssRNA)
RNA: UUUGACAACUGAUCGUUCUUUCUUGUACCCGCCUUCUUUCUCGAUCAGUUGUCUUU
B16: Ic_S4_P5E.1_K5.1_C5.1_H5.1_A5.1_[T5C]_[T6C]_F5.1_[T8G]_[T9C]_[A10T]_T5.1 (ssRNA)
RNA: UUUGACAACUGAUCGUUCUUUCUUGUACCAGCUUUCUUUCUCGAUCAGUUGUCUUU
B17: Ic_S4_P5E.1_K5.1_C5.1_H5.1_A5.1_[T5C]_[T6A]_[A7C]_F5.1_[T9C]_[A10C]_T5.1 (ssRNA)
RNA: UUUGACAACUGAUCGUUCUUUCUUGUACACUCCUUCUUUCUCGAUCAGUUGUCUUU
B18: Ic_S4_P5E.1_K5.1_C5.1_H5.1_A5.1_[T5C]_[T6C]_F5.1_[T8A]_[T9A]_[A10C]_T5.1 (ssRNA)
RNA: UUUGACAACUGAUCGUUCUUUCUUGUACCAAACUUCUUUCUCGAUCAGUUGUCUUU
B19: Ic_S4_P5E.1_K5.1_C5.1_H5.1_A5.1_[T5C]_[A7T]_F5.1_[T8C]_[T9A]_[A10T]_T5.1 (ssRNA)
RNA: UUUGACAACUGAUCGUUCUUUCUUGUACUUCAUUUCUUUCUCGAUCAGUUGUCUUU
B20: Ic_S4_P5E.1_K5.1_C5.1_H5.1_A5.1_[T5G]_[A7T]_F5.1_[T8A]_[A10T]_T5.1 (ssRNA)
RNA: UUUGACAACUGAUCGUUCUUUCUUGUAGUUAUUUUCUUUCUCGAUCAGUUGUCUUU
B21: Ic_S4_P5E.1_K5.1_C5.1_H5.1_A5.1_[T5A]_[T6A]_[A7C]_F5.1_[T9A]_[A10T]_T5.1 (ssRNA)
RNA: UUUGACAACUGAUCGUUCUUUCUUGUAAACUAUUUCUUUCUCGAUCAGUUGUCUUU

The target of this series is T1, PUF4 RNA-binding domain. Nature of the series: Mg; RNA-MaP; 20 mM Na-HEPES pH 7.4, 30 mM KOAc, 0.75 mM MgCl2, 0.1% Tween-20, 5% glycerol, 0.1 mg/mL BSA, 2 mM DTT; 25 C; 0.0125-409.6 nM protein. The following applies: tags: N-His6-TEV cleaved; C-SNAP kept, Cy3B-labelled; label: tethered on chip by stalled RNA polymerase.
Usually Kd stands for the equilibrium constant for the complex coming apart. Low readings indicate a tighter complex, high ones a looser complex. In turn, UCUCUUUGUAUUUUCUCUCUU (ssRNA) [Ic_S1_P4E.1_K4.1_C4.1_H4.1_A4.1_[A6T]_F4.1_[A9C]_T4.1] yielded a Kd of 36 nM.

With UCUCUUUGUAUGUUCUCUCUU (ssRNA) [Ic_S1_P4E.1_K4.1_C4.1_H4.1_A4.1_[A6G]_F4.1_[A9C]_T4.1], binding was put at a Kd of 54.6 nM.

B1 displayed a Kd of 15.5 nM.

B2 showed a Kd of 1670 nM.

Molecule B3 displayed a Kd of 610 nM.

On to B4, for which the dissociation constant (Kd) stood at 527 nM.

For B5, binding was characterised by a dissociation constant (Kd) of 32.8 nM.

For the molecule B6, the Kd worked out at 101 nM.

B7 yielded a dissociation constant (Kd) of 16.9 nM.

Take B8: binding was put at a Kd of 400 nM.

Regarding B9, the Kd was 1350 nM.

In turn, B10 had an equilibrium dissociation constant (Kd) of 4.37 nM.

The molecule B11 showed a Kd of 80.4 nM.

The molecule B12 showed a Kd of 199 nM.

As to B13, the equilibrium dissociation constant (Kd) is 56.6 nM.

The molecule B14 displayed a dissociation constant Kd of 196 nM.

For the molecule B15, binding was characterised by a dissociation constant (Kd) of 985 nM.

Molecule B16 registered a dissociation constant (Kd) of 650 nM.

The molecule B17 registered an equilibrium dissociation constant (Kd) of 6.67 nM.

Take B18: the Kd was determined as 158 nM.

B19 came in with a Kd of 103 nM.

The molecule B20 came in with a Kd of 85.3 nM.

On to B21, for which the Kd worked out at 2.41 nM.
